± gives the standard deviation of the averaged measurements.
Tested on: ATP
Assay: switch fluorescence ratio, 500 uM ATP over buffer (Cy3 cluster intensity, sum of 5 cycles each) (fold (ratio)); higher = stronger signal-on switching upon ATP binding; sequences stand for … in TCGTCGGCAGCGTCAGATGTGTATAAGAGACAGTTTTTTTTTTTTTTTTTTTTTTTTT…TC
Conditions: aptamer strand: ATP DNA aptamer (quencher-CACCTGGGGGAGTATTGCGGAGGAAGG + anchor), 100 nM annealed; ATP concentration: 500 uM
Summary of the method: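 Cy3-labelled switching-strand clusters on a modified Illumina MiSeq flow-cell were annealed to 100 nM quencher-labelled ATP aptamer and imaged first in selection buffer, then after 15 min with 500 uM ATP at 22 °C. NaOH stripping and re-annealing separated each of five buffer/ATP cycles, and clusters outside 100-1000 RFU were excluded. The fluorescence ratio sums target-cycle Cy3 intensity over buffer-cycle Cy3 intensity per cluster and averages it per switch-domain sequence.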
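Note: ATP exposure 15 min at 22 °C before imaging.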

| Sequence | switch fluorescence ratio |
| --- | --- |
| TCTTTATATT | 1.02 ± 0.048 |
| TCTTTATTAA | 0.989 ± 0.011 |
| TCTTTCACGC | 1.09 ± 0.085 |
| TCTTTCTGGG | 1.03 ± 0.021 |
| TCTTTGACAG | 1.02 ± 0.015 |
| TCTTTGACGC | 1.21 ± 0.013 |
| TCTTTGATGA | 0.983 ± 0.051 |
| TCTTTGGGGA | 1.04 ± 0.04 |
| TCTTTGTCGG | 0.977 ± 0.029 |
| TCTTTTTATA | 1.04 ± 0.017 |
| TCTTTTTCCC | 1.01 ± 0.022 |
| TCTTTTTGTT | 0.99 ± 0.018 |
| TGAAAAAAAA | 0.971 ± 0.025 |
| TGAAAAAAT | 0.977 ± 0.051 |
| TGAAAAAATC | 0.987 ± 0.019 |
| TGAAAACACC | 1.13 ± 0.15 |
| TGAAAACGGG | 1.022 ± 0.0095 |
| TGAAAATAGT | 0.965 ± 0.029 |
| TGAAACTTGT | 1.01 ± 0.041 |
| TGAAAGATGT | 1.01 ± 0.035 |
| TGAAAGCACA | 1.11 ± 0.06 |
| TGAAAGCCCG | 1.048 ± 0.0056 |
| TGAAAGTATT | 1 ± 0.022 |
| TGAAATAGGA | 1.01 ± 0.039 |
| TGAAATATTC | 0.993 ± 0.019 |
| TGAAATGATG | 0.9977 ± 0.0082 |

| Sequence | switch fluorescence ratio |
| --- | --- |
| TGAAATGGCT | 0.997 ± 0.034 |
| TGAAATTACG | 1.03 ± 0.022 |
| TGAAATTACT | 1.05 ± 0.033 |
| TGAACGACAG | 1.031 ± 0.0093 |
| TGAACTGCTG | 1.017 ± 0.0049 |
| TGAACTTGAG | 1.01 ± 0.0062 |
| TGAAGAAAGG | 0.981 ± 0.02 |
| TGAAGATATA | 0.99 ± 0.015 |
| TGAAGATATT | 0.993 ± 0.023 |
| TGAAGCATCC | 1.822 ± 0.0073 |
| TGAAGCTGCC | 1.28 ± 0.042 |
| TGAAGCTTTA | 1.06 ± 0.048 |
| TGAAGGATGA | 0.9978 ± 0.0058 |
| TGAAGGGCGT | 0.9927 ± 0.0081 |
| TGAAGGGGAA | 1.02 ± 0.061 |
| TGAAGGGTGA | 1.007 ± 0.0094 |
| TGAAGGGTTG | 1.01 ± 0.026 |
| TGAAGTATGA | 1.03 ± 0.045 |
| TGAAGTATTT | 1 ± 0.037 |
| TGAAGTTAGT | 0.975 ± 0.03 |
| TGAAGTTTTA | 0.989 ± 0.025 |
| TGAATAAAGC | 1.05 ± 0.02 |
| TGAATACTTT | 0.996 ± 0.044 |
| TGAATCTTGG | 1.02 ± 0.044 |
| TGAATGGGGA | 1.01 ± 0.029 |
| TGAATGGTCT | 1.01 ± 0.03 |

| Sequence | switch fluorescence ratio |
| --- | --- |
| TGAATTTCTT | 0.986 ± 0.022 |
| TGAATTTTAT | 0.9885 ± 0.0073 |
| TGAATTTTGT | 0.978 ± 0.036 |
| TGACAAAGGG | 0.988 ± 0.024 |
| TGACACAGGA | 1.04 ± 0.024 |
| TGACAGCCTT | 1.068 ± 0.0032 |
| TGACAGGGGA | 1.02 ± 0.033 |
| TGACAGTGAA | 1.01 ± 0.02 |
| TGACATTCGA | 1.0321 ± 0.00051 |
| TGACCAGGCA | 1.05 ± 0.056 |
| TGACCGTTTT | 0.999 ± 0.025 |
| TGACGACGCC | 4.6 ± 0.054 |
| TGACGAGCGA | 2.25 ± 0.24 |
| TGACGAGTAA | 1.5 ± 0.28 |
| TGACGGATGC | 1.197 ± 0.01 |
| TGACGGTAGC | 1.06 ± 0.056 |
| TGACGGTTTA | 1.023 ± 0.0016 |
| TGACGTACCC | 1.7 ± 0.05 |
| TGACGTGCGT | 1.02 ± 0.012 |
| TGACTAAACA | 1.056 ± 0.0059 |
| TGACTAGGGG | 0.949 ± 0.1 |
| TGACTGAAAA | 1.009 ± 0.007 |
| TGACTGGGTA | 1 ± 0.021 |
| TGACTGTTTG | 0.984 ± 0.04 |
| TGACTTAACT | 1.09 ± 0.034 |
| TGACTTGAGC | 1.01 ± 0.058 |

| Sequence | switch fluorescence ratio |
| --- | --- |
| TGACTTGGG | 0.935 ± 0.02 |
| TGACTTGGGG | 0.995 ± 0.033 |
| TGAGAAAGGG | 0.982 ± 0.0019 |
| TGAGAAAGGT | 0.965 ± 0.044 |
| TGAGAAGGGA | 1.02 ± 0.22 |
| TGAGAAGTCA | 0.9785 ± 0.0066 |
| TGAGAATGTT | 1.09 ± 0.19 |
| TGAGAGGTCT | 1.017 ± 0.0097 |
| TGAGAGTCAG | 0.986 ± 0.017 |
| TGAGAGTTAT | 1 ± 0.051 |
| TGAGAGTTTT | 0.978 ± 0.036 |
| TGAGATAACA | 0.9943 ± 0.0033 |
| TGAGATACGA | 1.0108 ± 0.0001 |
| TGAGATCCCT | 1.03 ± 0.039 |
| TGAGATGGTC | 1.004 ± 0.01 |
| TGAGATTTTG | 0.983 ± 0.045 |
| TGAGCCATCG | 0.987 ± 0.02 |
| TGAGCGAGTG | 0.957 ± 0.028 |
| TGAGCGGCAA | 1.2 ± 0.22 |
| TGAGCGGTTG | 1 ± 0.018 |
| TGAGCGTCGG | 0.968 ± 0.051 |
| TGAGCGTTGG | 0.9987 ± 0.0062 |
| TGAGCTATTG | 0.997 ± 0.015 |
| TGAGGAAGAC | 1.09 ± 0.014 |
| TGAGGAATTC | 1 ± 0.017 |
| TGAGGAGGG | 0.97516 ± 0.00046 |

| Sequence | switch fluorescence ratio |
| --- | --- |
| TGAGGAGGGA | 0.987 ± 0.013 |
| TGAGGATTTG | 1.02 ± 0.011 |
| TGAGGCCCAG | 1.01 ± 0.019 |
| TGAGGCCGGG | 1 ± 0.021 |
| TGAGGGGCAG | 0.984 ± 0.013 |
| TGAGGGGGCG | 1.03 ± 0.11 |
| TGAGGGGGCT | 0.9862 ± 0.0034 |
| TGAGGGGTGG | 0.961 ± 0.038 |
| TGAGGGTGGT | 0.981 ± 0.0012 |
| TGAGGGTGTT | 0.998 ± 0.011 |
| TGAGGGTTGC | 1.01 ± 0.018 |
| TGAGGTAGGC | 1.05 ± 0.024 |
| TGAGGTCAGA | 1.03 ± 0.013 |
| TGAGGTGAAA | 0.976 ± 0.03 |
| TGAGGTGCGT | 0.995 ± 0.033 |
| TGAGGTTTAG | 1.02 ± 0.028 |
| TGAGTAGGGG | 0.994 ± 0.017 |
| TGAGTATTAG | 0.999 ± 0.033 |
| TGAGTATTGC | 0.969 ± 0.04 |
| TGAGTATTGG | 0.99 ± 0.027 |
| TGAGTCAAGC | 1.01 ± 0.076 |
| TGAGTGAAAT | 1.1 ± 0.014 |
| TGAGTGAATG | 0.9787 ± 0.0042 |
| TGAGTGATGT | 1.01 ± 0.023 |
| TGAGTGCAGC | 1.08 ± 0.12 |
| TGAGTGGATG | 0.971 ± 0.075 |

| Sequence | switch fluorescence ratio |
| --- | --- |
| TGAGTTAGGC | 1.04 ± 0.054 |
| TGAGTTCGTA | 1.02 ± 0.012 |
| TGAGTTGAAG | 0.9869 ± 0.0056 |
| TGAGTTTGGT | 0.97 ± 0.018 |
| TGATAATTTG | 1.006 ± 0.01 |
| TGATACATAA | 1.028 ± 0.0097 |
| TGATACTGGG | 1.06 ± 0.06 |
| TGATACTTAG | 1.061 ± 0.0084 |
| TGATAGACAT | 0.988 ± 0.019 |
| TGATAGGATT | 0.9764 ± 0.0021 |
| TGATAGGGTG | 1.03 ± 0.053 |
| TGATATAGGA | 1.01 ± 0.064 |
| TGATATATTT | 1.02 ± 0.046 |
| TGATATTGGT | 1.01 ± 0.021 |
| TGATCAAGGA | 0.997 ± 0.041 |
| TGATCATGCG | 1 ± 0.011 |
| TGATCCGGAG | 1.08 ± 0.038 |
| TGATCCGGAT | 1.02 ± 0.09 |
| TGATCGGGCA | 0.956 ± 0.031 |
| TGATCGTGAG | 1.02 ± 0.017 |
| TGATGAGATC | 0.9734 ± 0.0082 |
| TGATGAGTCG | 1.0211 ± 0.00074 |
| TGATGATATA | 1.02 ± 0.013 |

— the supplement of paper PMC10126150
